Measurements taken from patent publication US10208121B2, “Anti-Axl antagonistic antibodies” (BERGEN TEKNOLOGIOVERFORING AS, priority 2014, dated 2019).
“Also recorded” adds a separate entry of the source.

Key:
[1] = molecular target: T1, mouse Axl (rmAxl-Fc chimera) (Mus musculus, UniProt Q00993); experiment: Biacore binding analysis on immobilized mouse Axl; settings: 10 μg/mL, 25° C.
T1 construct: The soluble recombinant antigens corresponding to human Axl (rhAxl-Fc chimera; R&D Systems, Cat. no; 154-AL), mouse Axl (rmAxl-Fc chimera; purchased R&D Systems 854-AX
Method: The binding experiments were performed using Biacore 3000 instrument (GE Healthcare) at 25° C. The soluble recombinant antigens corresponding to human Axl (rhAxl-Fc chimera; R&D Systems, Cat. no. 154-AL), mouse Axl (rmAxl-Fc chimera; R&D Systems, R&D Systems; Cat. no. 854-AX) and human Tyro3 (rhTyro3/Dtk-Fc chimera; R&D Systems, Cat. no. 859-DK) were immobilized on the surface of CM5 sensor chip using amine coupling at the surface density of 1,308.0, 2,115.9 and 1,429.0 RU, respectively. The Biacore runs were performed in an automatic mode using Binding analysis wizard.
The sample containing either MAb 10C9, MAb 10G5 or recombinant mouse (rm) Axl-ligand Gas6 (R&D Systems, Cat. no. 986-GS/CF) at concentration 10 μg/mL in HBS-EP buffer (GE Healthcare) was injected over the surfaces with immobilized antigens at flow rate of 30 μL/min for 3 min (association) followed by 5 min dissociation.

[2] = molecular target: T2, rhAxl-Fc (Homo sapiens, UniProt P30530); experiment: Biacore competitive binding study on rhAxl-Fc (two sample injection); settings: for competition for Axl binding with control antibody MAB154 / inhibition of Gas6 binding to Axl: rhAxl saturated with antibody; for competition for Axl binding with control antibody MAB154: then MAB154 at 25 μg/mL; for inhibition of Gas6 binding to Axl: then rhGas6 or rmGas6 at 25 μg/mL; for blocking of binding of the other antibody (10C9 / 10G5) to Axl: rhAxl saturated with first antibody, second antibody at 25 μg/mL
T2 construct: Soluble recombinant antigens corresponding to the extracellular domains of members of the human TAM receptor family; purchased R&D Systems 154-AL
Method: A competitive binding study was performed using Biacore 3000 instrument (GE Healthcare) and Binding Analysis wizard with several cycles of two samples injection. As a first sample, a saturating concentration of MAb 10C9 (790 nM or 120 μg/mL) or 10G5 (160 nM or 24 μg/mL) was injected over the surface of a CM5 sensor chip coated with rhAxl-Fc (using amine coupling) for 3 min at flow rate of 30 μL/min followed by 2.5 min stabilization (HBS-EP buffer alone) before the injection of the second sample. The following second samples were used: recombinant human (rh) Gas6 (R&D Systems, Cat. no. 885-GS), recombinant mouse (rm) Gas6 (R&D Systems, Cat. no. 986-GS/CF) and a panel of anti-Axl antibodies, such as MAB154 (R&D Systems, Cat. no. MAB154), 10C9 and 10G5; all at concentration 25 μg/mL. The second sample was injected for 3 min, followed by 2.5 min stabilization (buffer alone) and regeneration of the surface by 30 sec injection of a regeneration solution (10 mM HCl, 1 M NaCl) at flow rate 50 μL/min.

[3] = tested on: Mv4-11 tumours; experiment: Mv4-11 AML xenograft in nude mice; assay type: in vivo, mouse
Method: Inhibition of Mv4-11 xenograft tumour growth by the chimeric antibody 10G5. The antibody was administrated intraperitoneally at 30 mg/kg, twice a week, starting when the mean tumour size reached 200 mm^3. Tumour growth curves for the groups treated with either vehicle (sterile PBS) or chimeric 10G5 are shown. Error bars represent standard error of the mean (SEM). Statistical analysis was performed using two-way ANOVA. *, P<0.05; **, P<0.01; ****, P<0.0001.
To evaluate the anti-tumour activity of anti-Axl chimeric antibodies in a model of haematological cancer, we used a mouse xenograft model of human acute myeloid leukaemia (AML). The human AML Mv4-11 cells (ATCC # CRL-9591) cells were propagated in suspension in IMDM medium supplemented with 10% FBS, 2 mM L-Glutamine, 100 U/ml penicillin and 100 μg/ml streptomycin. Nude mice were implanted s.c. into the flank with 5×10^6 Mv4-11 cells resuspended in the mixture of serum-free IMDM medium and Matrigel (1:1). When the tumour size reached 200 mm^3 (Day 0 in FIG. 15), the animals were randomized and treated with either vehicle (sterile PBS) or anti-Axl chimeric antibody 10G5 at 30 mg/kg, by i.p. injections twice weekly for 4 weeks.

[4] = tested on: Gas6-mediated Axl signalling (phosphorylation of Akt on Ser^473); experiment: Gas6-induced Axl downstream signalling, Western blot of phospho-Akt (Ser^473); assay type: cell-based, human; settings: HeLa cells, 1 μg/mL antibody for 1 hr, then mouse Gas6 10 μg/mL for 20 min
Method: Western blot analysis illustrating inhibition of Gas6-mediated Axl signalling in the presence of mouse monoclonal antibodies 10C9 and 10G5. Phosphorylation of Akt on Ser^473 was used as surrogate readout for Axl activity. M, molecular weight markers. Immunoblots of total cell lysates were probed with anti-phospho-Akt (Ser^473), or anti-GAPDH (glyceraldehyde 3-phosphate dehydrogenase) as loading control.
The experiments were performed using human cervical cancer derived cell line HeLa (ATCC® CCL-2™). The cells were grown in T175 flasks to 80% confluency in MEM culture medium (Sigma) supplemented with 10% FBS, penicillin-streptomycin and L-glutamine. The cells were washed with PBS and detached by treatment with 0.25% Trypsin/EDTA (Sigma) followed by centrifugation and resuspension in fresh medium (MEM/0.5% FBS). The cells were seeded in Petri dishes (3×10^6 cells per dish) in MEM medium supplemented with 10% FBS. After three hrs incubation at 37° C., the cells were washed with PBS and kept in starvation medium (MEM/0.5% FBS) overnight. The cells were pre-incubated with anti-Axl antibody 10C9 or 10G5 at concentration 1 μg/mL for 1 hr followed by stimulation with Axl ligand, recombinant mouse Gas6 (R&D Systems), at concentration 10 μg/mL for 20 min. […] Detection with anti-GAPDH antibody (Millipore) was used as loading control.

T1 sequence (Q00993 19-445 limits assumed, change not shown): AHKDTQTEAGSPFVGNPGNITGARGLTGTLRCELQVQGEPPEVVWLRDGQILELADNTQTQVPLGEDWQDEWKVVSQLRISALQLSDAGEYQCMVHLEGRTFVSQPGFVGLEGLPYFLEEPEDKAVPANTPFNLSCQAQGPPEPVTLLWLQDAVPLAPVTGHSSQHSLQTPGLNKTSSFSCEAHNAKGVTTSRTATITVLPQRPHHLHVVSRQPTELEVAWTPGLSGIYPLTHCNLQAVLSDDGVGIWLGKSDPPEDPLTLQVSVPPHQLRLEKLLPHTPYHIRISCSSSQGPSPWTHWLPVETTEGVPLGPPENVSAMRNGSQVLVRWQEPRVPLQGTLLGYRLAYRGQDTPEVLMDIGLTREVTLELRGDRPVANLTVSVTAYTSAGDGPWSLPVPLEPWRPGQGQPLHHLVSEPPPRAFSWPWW

| binding to mouse Axl [1] | Molecule | competition for Axl binding with control antibody MAB154 [2] | inhibition of Gas6 binding to Axl [2] | blocking of binding of the other antibody (10C9 / 10G5) to Axl [2] | growth of Mv4-11 tumours compared with the control ([3]; 30 mg/kg i.p. twice weekly for 4 weeks, P<0.0001, two-way ANOVA) | inhibition of tumour growth ([3]; 30 mg/kg i.p. twice weekly, after three weeks of treatment, versus vehicle (PBS)) | Gas6-induced phosphorylation of Akt on Ser^473 [4] |
| --- | --- | --- | --- | --- | --- | --- | --- |
| no binding | 10G5: mouse anti-Axl monoclonal antibody from hybridoma WR-10G5-E5, IgG1; VH SEQ ID NO: 21, VL SEQ ID NO: 22 (antibody, listed as Mus musculus, V domains shown) VH: QVQLQQSGAELVRPGASVKLSCKASGYSFTDFYINWVRQRPGQGLEWIARIFPGGDNTYYNEKFKGKATLTAEESSSTAYIQLSSLTSEDSAVYFCARRGLYYAMDYWGQGISVTVSS VL: DVLMTQTPLSLPVSLGDQASISCRSSQSLVHSNGIPYLHWYLQKPGQSPKLLIYRVSNRFSGVPDRFSGSGSGTDFTLKISRVEAEDLGVYFCSQGTHVPPTFGGGTKLEIK | did not compete | inhibit the binding of Axl to its ligand Gas6; also recorded: inhibited Axl binding by its ligand Gas6 | blocked binding of each other |  |  |  |
|  | c10G5: chimeric (mouse variable/human constant) IgG1 variant of antibody 10G5 (antibody, left off: a dimerising Fc or GST, chimeric (mouse variable/human constant) IgG1 variant of antibody 10G5) heavy: QVQLQQSGAELVRPGASVKLSCKASGYSFTDFYINWVRQRPGQGLEWIARIFPGGDNTYYNEKFKGKATLTAEESSSTAYIQLSSLTSEDSAVYFCARRGLYYAMDYWGQGISVTVSS light: DVLMTQTPLSLPVSLGDQASISCRSSQSLVHSNGIPYLHWYLQKPGQSPKLLIYRVSNRFSGVPDRFSGSGSGTDFTLKISRVEAEDLGVYFCSQGTHVPPTFGGGTKLEIK |  |  |  | extremely significantly attenuated growth of Mv4-11 tumours | around 75% |  |
| no binding | 10C9: mouse anti-Axl monoclonal antibody from hybridoma UT-10C9-B9, IgG2b; VH SEQ ID NO: 3, VL SEQ ID NO: 4 (antibody, listed as Mus musculus, V domains shown) VH: QVQLQQPGPELVKPGASVKISCKTSDYNFTRYYIHWVKQRPGQGLEWIGWIYPGTGDSKYNEKFKGRATLTADTSSSTAYMQLSSQTSEDSAVYFCARNGNYWYFDVWGAGTAVTVSS VL: DIVMTQAAPSGPVTPGESVSISCRSSKSLLHSNGNTYLYWFLQRPGQSPQLLIYRMSNLASGVPDRFSGSGSGTAFTLRISRVEAEDVGIYYCMQHREYPFTFGGGTKLEIK | did no inhibit; also recorded: did not compete | inhibit the binding of Axl to its ligand Gas6; also recorded: cannot be bound; also recorded: inhibited Axl binding by its ligand Gas6 | cannot be bound; also recorded: blocked binding of each other |  |  | significantly reduces; also recorded: significantly be reduced |
